T1: human B7H3 (human, UniProt Q5ZPR3 29-466, limits assumed)
T1 construct: also called human B7H3 protein
T1 sequence (looked up): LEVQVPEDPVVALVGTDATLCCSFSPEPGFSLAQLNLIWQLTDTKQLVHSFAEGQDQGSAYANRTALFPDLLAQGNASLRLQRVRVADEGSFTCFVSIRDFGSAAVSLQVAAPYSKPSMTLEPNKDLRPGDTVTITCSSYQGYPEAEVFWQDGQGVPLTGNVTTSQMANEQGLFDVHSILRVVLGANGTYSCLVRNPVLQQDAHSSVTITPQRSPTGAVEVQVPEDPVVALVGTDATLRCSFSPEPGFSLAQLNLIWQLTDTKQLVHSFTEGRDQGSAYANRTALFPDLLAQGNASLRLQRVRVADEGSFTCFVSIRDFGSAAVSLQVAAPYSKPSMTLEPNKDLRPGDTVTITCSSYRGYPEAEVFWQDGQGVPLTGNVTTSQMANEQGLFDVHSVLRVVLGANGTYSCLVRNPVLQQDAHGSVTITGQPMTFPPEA

T2: monkey B7H3-His (monkey)
T2 chain: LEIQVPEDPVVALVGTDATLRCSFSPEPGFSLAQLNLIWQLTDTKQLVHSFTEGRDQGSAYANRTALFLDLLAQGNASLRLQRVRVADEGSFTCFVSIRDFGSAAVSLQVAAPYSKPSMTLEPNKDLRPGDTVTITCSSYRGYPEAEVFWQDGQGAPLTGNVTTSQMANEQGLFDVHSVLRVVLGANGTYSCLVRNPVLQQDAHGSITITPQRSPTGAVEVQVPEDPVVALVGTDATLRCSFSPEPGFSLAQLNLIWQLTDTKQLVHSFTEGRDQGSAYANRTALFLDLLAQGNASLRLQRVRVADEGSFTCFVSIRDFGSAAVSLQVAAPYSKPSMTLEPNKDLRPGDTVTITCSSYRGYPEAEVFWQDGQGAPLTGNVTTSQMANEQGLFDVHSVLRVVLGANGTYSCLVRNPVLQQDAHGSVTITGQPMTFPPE

T3: recombinant human B7H3-Fc protein (human, UniProt Q5ZPR3 29-466, limits assumed)
T3 construct: 154 kDa non-reduced, 77 kDa reduced; also called hB7H3-Fc; not shown: Fc part
T3 sequence (looked up): T1 sequence (looked up)

T4: B7H3 (CD276) on MC38-CD276+ cells
T4 construct: whole, on cells; MC38-CD276KO cells served as the negative control; also called MC38-B7H3+
T4 sequence (Q5ZPR3 1-534, species assumed, looked up): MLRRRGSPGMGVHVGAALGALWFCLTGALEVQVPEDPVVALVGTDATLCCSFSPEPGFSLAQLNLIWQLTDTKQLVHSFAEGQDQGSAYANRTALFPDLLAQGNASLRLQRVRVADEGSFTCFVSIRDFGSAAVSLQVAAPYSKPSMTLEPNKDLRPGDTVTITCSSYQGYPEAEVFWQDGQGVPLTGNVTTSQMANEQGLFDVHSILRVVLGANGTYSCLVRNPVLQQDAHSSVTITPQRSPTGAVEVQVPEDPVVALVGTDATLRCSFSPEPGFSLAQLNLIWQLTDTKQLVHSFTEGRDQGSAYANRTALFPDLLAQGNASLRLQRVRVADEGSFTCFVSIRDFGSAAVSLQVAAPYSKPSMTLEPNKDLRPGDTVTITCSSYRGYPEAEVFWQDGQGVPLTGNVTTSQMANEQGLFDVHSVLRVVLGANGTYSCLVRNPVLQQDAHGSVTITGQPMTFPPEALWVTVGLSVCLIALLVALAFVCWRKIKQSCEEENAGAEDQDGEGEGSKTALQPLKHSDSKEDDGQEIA

T5: B7H3 peptide 10 (human)
T5 peptide: QRVRVADEGSFTCFVSIR

T6: B7H3 peptide 11 (human)
T6 peptide: SFTCFVSIRDFGSAAVSL

T7: B7H3 peptide 15 (human)
T7 peptide: LRPGDTVTITCSSYQGYP

B1: RWB12 (VHH)
VHH: QVQLVESGGGSVQVGGSLRLSCAASGFTYNSYSVGWFRQAPGKEREGVAAINSGGSSTYYAASVKGRFTISRDNAKNTVYLQMNSLKPEDTAMYYCAARSPSPLTFQTRTLREDSYNYWGQGTQVTVSS
notes: Camel VHH; tag not described; also called camel antibody RWB12
B2: RWG8 (VHH)
VHH: DVQLVESGGGLVQPGGSLRLSCAASGFTFSRYWMGWFRQAPGKGVEWVSTINSGGGSTYYADSVKGRFTISRDNAKNTLYLQLNNLKTEDTAMYYCAKEQWRTGSRGQGTQVTVSS
notes: Camel VHH; tag not described; also called camel antibody RWG8
B3: RWC4 (VHH)
VHH: EVQLVESGGGSVQAGGSLRLSCVASEDSTSAMCMGWFRQAPGKEREGVACINPTGEVTWYGDSVKGRFTISRDTVKKIVYLQMNSLKPEDTAMYYCAARVTYGGDWSTDTDYEYWGQGTQVTVSS
notes: Camel VHH; tag not described; also called camel antibody RWC4
B4: RWG4 (VHH)
VHH: QVQLVQSGGGLVQPGGSLRLSCAASGFTFSVYWFYWVRQAPRQGLEWVSTIASNGSTYYSDSVKGRFTISRDNAKNTVYLQMNSLKPEDTAVYYCVSDPDYYSDYERAYKFWAQGTQVTVSS
notes: Camel VHH; tag not described; also called camel antibody RWG4

PD-L1, sequence (Q9NZQ7 whole entry): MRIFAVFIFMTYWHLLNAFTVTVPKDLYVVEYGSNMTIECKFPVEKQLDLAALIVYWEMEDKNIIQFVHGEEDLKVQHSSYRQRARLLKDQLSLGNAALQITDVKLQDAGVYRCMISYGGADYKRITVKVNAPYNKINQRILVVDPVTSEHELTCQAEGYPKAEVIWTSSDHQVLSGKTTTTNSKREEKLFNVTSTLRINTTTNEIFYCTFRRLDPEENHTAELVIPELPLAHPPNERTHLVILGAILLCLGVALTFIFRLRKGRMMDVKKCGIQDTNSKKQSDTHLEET

One assay concerns the target T1, human B7H3. The assay can be described thus: ELISA; row Human; well 2 of 3. In short, it runs like this: (§1)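 Camel VHH nanobodies were selected by phage panning against recombinant B7H3-Fc and then purified. An ELISA measured their binding to immobilised recombinant proteins, both B7H3 fusion proteins and proteins unrelated to B7H3. The values are the ELISA signal.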
(In general: An ELISA detects its analyte on a solid surface through an enzyme-linked reagent.)
For B1, the “ELISA reading (name not given)” value came to 0.21.

B2: the “ELISA reading (name not given)” value came to 0.147.

Regarding B3, the “ELISA reading (name not given)” value worked out at 0.979.

The next assay concerns the target HN3-Fc. Kind of assay: ELISA; row HN3-Fc; well 3 of 3. In short, it runs like this: as §1
Turning to B1, the “ELISA reading (name not given)” value amounted to 0.048.

In the case of B2, the “ELISA reading (name not given)” value is 0.0535.

In the case of B3, the “ELISA reading (name not given)” value was determined as 0.0467.

Another assay deals with T2, monkey B7H3-His. The assay can be described thus: ELISA; row Monkey; well 1 of 3. In short, it runs like this: as §1
Take B1: the “ELISA reading (name not given)” value was found to be 0.188.

Turning to B2, the “ELISA reading (name not given)” value worked out at 0.197.

B3: the “ELISA reading (name not given)” value was determined as 1.

In a further assay the target is T2, monkey B7H3-His. The assay can be described thus: ELISA; row Monkey; well 2 of 3. In short, it runs like this:
as §1
For the molecule B1, the “ELISA reading (name not given)” value amounted to 0.201.

As to B2, the “ELISA reading (name not given)” value came out at 0.198.

With B3, the “ELISA reading (name not given)” value turned out to be 1.

Another assay concerns the target T2, monkey B7H3-His. Kind of assay: ELISA; row Monkey; well 3 of 3. In outline:
as §1
Regarding B1, the “ELISA reading (name not given)” value was 0.178.

In the case of B2, the “ELISA reading (name not given)” value was 0.195.

Turning to B3, the “ELISA reading (name not given)” value worked out at 1.04.

The target of a further assay is T3, recombinant human B7H3-Fc protein. The assay can be described thus: ELISA; row B7H3-Fc; well 2 of 3. In outline: as §1
For B1, the “ELISA reading (name not given)” value is 0.945.

Consider B2, for which the “ELISA reading (name not given)” value is 2.01.

Take B3: the “ELISA reading (name not given)” value stood at 1.99.

Another assay has as its target PD-L1. Kind of assay: ELISA; row PDL1-Fc; well 2 of 3. In outline: as §1
For the molecule B1, the “ELISA reading (name not given)” value came to 0.0685.

Take B2: the “ELISA reading (name not given)” value was determined as 0.0633.

Take B3: the “ELISA reading (name not given)” value turned out to be 0.0627.

The target in another assay is B7H3 R&D. Kind of assay: ELISA; row B7H3 R&D; well 1 of 3. In short, it runs like this: as §1
Turning to B1, the “ELISA reading (name not given)” value amounted to 0.0582.

Consider B2, for which the “ELISA reading (name not given)” value came to 0.0696.

With B3, the “ELISA reading (name not given)” value amounted to 0.132.

The target in the next assay is B7H3 R&D. Kind of assay: ELISA; row B7H3 R&D; well 2 of 3. In short, it runs like this:
as §1
For B1, the “ELISA reading (name not given)” value was determined as 0.0559.

For the molecule B2, the “ELISA reading (name not given)” value amounted to 0.0632.

Turning to B3, the “ELISA reading (name not given)” value came out at 0.151.

Another assay concerns the target T8, Irrelevant antigen.
T8 construct: negative control
Kind of assay: ELISA; row Irrelevant antigen; well 3 of 3. In short, it runs like this: as §1
With B1, the “ELISA reading (name not given)” value is 0.0853.

B2: the “ELISA reading (name not given)” value was determined as 0.114.

As to B3, the “ELISA reading (name not given)” value was 0.102.

Another assay concerns the target T4, B7H3 (CD276) on MC38-CD276+ cells. The assay can be described thus: flow cytometry on MC38-CD276+ cells, VHH at 10 ug/ml. On the technique in general: A flow cytometer gives signals particle by particle.
B1 displayed a Positive rates of 4.16%.

For B4, the Positive rates stood at 85.8%.

Molecule B2 came in with a Positive rates of 4.68%.

Take B3: the Positive rates was found to be 98.3%.

For a further assay, the target named is T5, B7H3 peptide 10. The assay can be described thus: peptide ELISA (OD450), 18-mer peptides of human B7H3. The text has this: (§2) FIGS. 21A-21C: G8 cross-reacts with mouse B7H3 and kills mouse cancer cells. (FIG. 21A) Binding activity of anti-B7H3 nanobodies to mouse antigen detected by flow cytometry. […] (FIG. 21C). […] A total of 48 peptides from the human B7H3 protein were designed and synthesized. Each peptide consisted of 18 amino acids and overlapped with adjacent peptides by 9 amino acids. ELISA technology was used to test binding ability of antibody to each peptide. Number indicates the OD₄₅₀ value. […] The peptide sequences are shown below the table. C4 and B12 may have a conformational epitope that couldn't be predicted by a linearized peptide library.
(§3) A total of 48 peptides from the human B7H3 protein were designed and synthesized. Each peptide consisted of 18 amino acids and overlapped with adjacent peptides by 9 amino acids. ELISA technology was used to test binding ability of the antibodies to each peptide (FIG. 21C). […] C4 and B12 may have a conformational epitope that couldn't be predicted by a linearized peptide library.
Regarding B1, the binding result is given as “no binding”.

B2: the binding result is “binds”.

Take B3: the binding result is “no binding”.

Another assay deals with T6, B7H3 peptide 11. Described as above.
Excerpt: as §2, §3
Take B1: the binding result was “no binding”.

B2: the binding result is reported as “binds”.

Take B3: the binding result is given as “no binding”.

The target of another assay is T7, B7H3 peptide 15. Described as above.
Excerpt: as §2, §3
As for B1, the binding result is recorded as “no binding”.

As to B2, the binding result is “binds”.

B3: the binding result was “no binding”.

The values above are taken from patent US20220380471A1 (US Dept. of Health and Human Services, published 2022).
